Test results reported in US12077763B2, “RNA-based control of powdery mildew” (Greenlight Biosciences, Inc., priority 2021, dated 2024).

B1: GS3337 (nucleic acid)
sense: UUUAUUAUGGCACUGGCGUGAAAAUACCUUAUCCCAAGGCAGAUACCGAUAAUGCGAGUGCUCAUGGAUAUACAAACAUUAAGGGCGGUAAUCCGGAAGGACGAGCUUUUCACCAUGGUAGACUAAUAUCUCAGCUCCGUAGAUGCUGCUCCCAGAACCCGAACAUCAAAAUUGUUGAAACGCUGGUUACAGAGACUAUUACGAAUCCUCAAACCCAAACUGUAAUUGGCGUAAGGUCAGAGACAAUGAAUGAUAAAACAGGCAAAAGAGAAGCCGACUACUAUUUGGGAGAUCUCACAAUUAUCGCCGAUGGAUAUGCAUCUAAAUUCCGAAAGCAGUAUAUAGACAAGUCACCCAUCGUAAAAAGCAAAUUCUAUGCUUUAGAGCUGAUAGAUU
antisense: AAUCUAUCAGCUCUAAAGCAUAGAAUUUGCUUUUUACGAUGGGUGACUUGUCUAUAUACUGCUUUCGGAAUUUAGAUGCAUAUCCAUCGGCGAUAAUUGUGAGAUCUCCCAAAUAGUAGUCGGCUUCUCUUUUGCCUGUUUUAUCAUUCAUUGUCUCUGACCUUACGCCAAUUACAGUUUGGGUUUGAGGAUUCGUAAUAGUCUCUGUAACCAGCGUUUCAACAAUUUUGAUGUUCGGGUUCUGGGAGCAGCAUCUACGGAGCUGAGAUAUUAGUCUACCAUGGUGAAAAGCUCGUCCUUCCGGAUUACCGCCCUUAAUGUUUGUAUAUCCAUGAGCACUCGCAUUAUCGGUAUCUGCCUUGGGAUAAGGUAUUUUCACGCCAGUGCCAUAAUAAA
B2: GS3343 (nucleic acid)
sense: CUAGCACUUACGAGCACGUCUCUUUGAAUUCAACUAGAGACUCACAAUUAUACCUUCCUCCUAUUAAAUCUUUAGUAUUGGAUACGAAAAAUGAGGGAAGUUAUUAGUGUUAAUGUUGGCCAAGCUGGGUGCCAAAUAGCAAACUCUUGCUGGGAGCUCUAUUGCCUUGAGCAUGGUAUACAGCCUGAUGGUUACUUAACGGAGAAGCGCAAGGCCGCCGAACCUGACGAAGGUUUCAGCACUUUUUUUUCAGAGACUGGUCAGGGAAAAUACGUACCUAGAACUAUUUAUUGUGAUCUUGAACCAAAUGUAGUCGAUGAAGUUCGUACGGGUACUUAUCGUAGCUUAUUCCACCCCGAGCAAAUGAUCACCGGAAAAGAAGAUGCAUCAAACAAUUA
antisense: UAAUUGUUUGAUGCAUCUUCUUUUCCGGUGAUCAUUUGCUCGGGGUGGAAUAAGCUACGAUAAGUACCCGUACGAACUUCAUCGACUACAUUUGGUUCAAGAUCACAAUAAAUAGUUCUAGGUACGUAUUUUCCCUGACCAGUCUCUGAAAAAAAAGUGCUGAAACCUUCGUCAGGUUCGGCGGCCUUGCGCUUCUCCGUUAAGUAACCAUCAGGCUGUAUACCAUGCUCAAGGCAAUAGAGCUCCCAGCAAGAGUUUGCUAUUUGGCACCCAGCUUGGCCAACAUUAACACUAAUAACUUCCCUCAUUUUUCGUAUCCAAUACUAAAGAUUUAAUAGGAGGAAGGUAUAAUUGUGAGUCUCUAGUUGAAUUCAAAGAGACGUGCUCGUAAGUGCUAG
B3: GS3344 (nucleic acid)
sense: GACUAUUGUCCUGACUAAACUAUAUACCAUCUGCUAACACGAUCCUCAAAGCAAAAUUUUUAACCGAUGAUCAUAAGUCAUGUAAAAGUUGAAAUUUCAACACACACCAAGAAAAAUAGCCUUGGUCUUUCAAUUUACAGCAUCCAUAUGGAUGCUAUUUUCUUAUAUAUUUCACCUACCUCCUGAGAACUGCAUCAAGAUUCGAGGUCGUUUCUUUAUAUAAUCAUGUCAAAUAAUGCAUGAUAAAUGAGUAAGAGGCUCUAGGCAGUCAAACUCAAAGAAUUGUCUUCAAUUGUAUUGUCAUUUUAUCUCAUUUGAUAAUGAGUUGUAGCCGCAACUCAAAUCAUUUUUCAUUUUUUGAAAAUGAAGUAAAAGACCGGUUUAAAAAAUUAAAUAUC
antisense: GAUAUUUAAUUUUUUAAACCGGUCUUUUACUUCAUUUUCAAAAAAUGAAAAAUGAUUUGAGUUGCGGCUACAACUCAUUAUCAAAUGAGAUAAAAUGACAAUACAAUUGAAGACAAUUCUUUGAGUUUGACUGCCUAGAGCCUCUUACUCAUUUAUCAUGCAUUAUUUGACAUGAUUAUAUAAAGAAACGACCUCGAAUCUUGAUGCAGUUCUCAGGAGGUAGGUGAAAUAUAUAAGAAAAUAGCAUCCAUAUGGAUGCUGUAAAUUGAAAGACCAAGGCUAUUUUUCUUGGUGUGUGUUGAAAUUUCAACUUUUACAUGACUUAUGAUCAUCGGUUAAAAAUUUUGCUUUGAGGAUCGUGUUAGCAGAUGGUAUAUAGUUUAGUCAGGACAAUAGUC
B4: GS3346 (nucleic acid)
sense: GUAGAGUUGAGCUUGGCCCUAAUGGCGUAAAUAAGAUCCAUGAAGUGGGAAACCUUGCUCCUGAAGAACAAGGUCUUUUAAAAGCUGCUCUAGUUGAUUUGUUAAAGAAUAUCGAAAAAGGAAUCAAAUUUGUUAACCAGAACCCCGGUGAAUAAAUAAAAUGUUAUUCAAUUUACAAUCUGUUGUUUUUUGAUCGUGGAUACCUUGAUAUUCAGUAACGAGGGAGAAUCAUUCUCCUGUCCCAAAAAAGUACUAUCUACUAUCUUAAAUUUUAUGGAAUCUUGAAUUUGUCCAAUGUAUCAAUAGAAAAAUUCUUUCAAAUUACAAGUCAAAAGUAUUAUGAAAAUUAAAAAGGACUAAUCCUCUUACAUAGAUAUAUAUAAAUAUA
antisense: UAUAUUUAUAUAUAUCUAUGUAAGAGGAUUAGUCCUUUUUAAUUUUCAUAAUACUUUUGACUUGUAAUUUGAAAGAAUUUUUCUAUUGAUACAUUGGACAAAUUCAAGAUUCCAUAAAAUUUAAGAUAGUAGAUAGUACUUUUUUGGGACAGGAGAAUGAUUCUCCCUCGUUACUGAAUAUCAAGGUAUCCACGAUCAAAAAACAACAGAUUGUAAAUUGAAUAACAUUUUAUUUAUUCACCGGGGUUCUGGUUAACAAAUUUGAUUCCUUUUUCGAUAUUCUUUAACAAAUCAACUAGAGCAGCUUUUAAAAGACCUUGUUCUUCAGGAGCAAGGUUUCCCACUUCAUGGAUCUUAUUUACGCCAUUAGGGCCAAGCUCAACUCUAC
B5: GS1798: dsRNA trigger SEQ ID NO 192; gene target Tip elongation aberrant protein 1 (nucleic acid)
DNA: AAATGTGTACCACCTTCTTGATGTAATTCTGAACGCAGCCAAATCTCCCAAGTCAGATCCATCGTCAGCCCGTCCTCCAAAGACATACATCACATCGTCAACAATTGCTGCAGCATGACCTTCTCTTGGAACCGGTATATATCCTATGCAGTCCAAAAGAGTCCAGGAGTTCGGTATCGGATCATAACACCAAACATCGTTATACCATTGAAGACCATTTGTTCCGCCAAACAAGTAAAGCTTTTCATTATATGTCACAACTGAGTGATTTGTTCTAGCTGATGGTATTTGTCCTACTGGGGGTCCACCATCCTCACTATTTTTAATGAGAATTTCCCACCTGTTCGTAGGGACTTGCAAAAGATTCAAATCAAAAGCCACAAGGTCATTCATAAAATAACCCTCTACTTGCCCCCCGAATACGTAGATTTTAGACCCTAGTATATTGAGAGAATGACCATAACGCCCCGCGGGCCGTGGCCCGGCAGGTATAGCTCTGGACCATTGTCGGGTAGAGGTATTAAGTAAGTAAAGAGTTTCATCTAATACGTCAGAATCGTCCATTTTAGTATCCCCACCATATACAATAAAAGCATTT
B6: GS3347 (nucleic acid)
sense: GUGAGUAUCAGGUGUAUAAAUAAAACGUAUAAAAAUGUGAUGUUAUAGAUCGACGGUCAAAGAUUUCUAGAGAUUGAGGUACUGGACAUUCCUUCUUCAACCCCUCAAGAAAUUGUUAAGUCGAAAGAUUAGUAAUUCUCAACUCUGAUUAAAAUAAUCGAUAUGUAUGAAGAUAAGCGAGAUGAAUUGAUAAUGUUGUCUAAAAUUUCGAAUUAUGAAUCUUUACAAAAGAGGGUGAGUUGUCGUAUGAUAAAAGGAGCCUGCUCCGAUCUAGAUAGAACACAGCAGGUAAAGUAGAAGUGAUAUCUGCGAGGAGCCUUGACACCAGCAAGGACUCAGUCCGAAGAGUACGAGUUGCUUUCUGGUUUGUUGAAUGAAAGAAGUAGAAAAAAAUAUAA
antisense: UUAUAUUUUUUUCUACUUCUUUCAUUCAACAAACCAGAAAGCAACUCGUACUCUUCGGACUGAGUCCUUGCUGGUGUCAAGGCUCCUCGCAGAUAUCACUUCUACUUUACCUGCUGUGUUCUAUCUAGAUCGGAGCAGGCUCCUUUUAUCAUACGACAACUCACCCUCUUUUGUAAAGAUUCAUAAUUCGAAAUUUUAGACAACAUUAUCAAUUCAUCUCGCUUAUCUUCAUACAUAUCGAUUAUUUUAAUCAGAGUUGAGAAUUACUAAUCUUUCGACUUAACAAUUUCUUGAGGGGUUGAAGAAGGAAUGUCCAGUACCUCAAUCUCUAGAAAUCUUUGACCGUCGAUCUAUAACAUCACAUUUUUAUACGUUUUAUUUAUACACCUGAUACUCAC
B7: GS3351 (nucleic acid)
sense: AAGAAACAGACAGAUGAUUUUAUCAUAUUUCAAGGUAUAUUUGAAUUUAGUGAAUCUAGUUUAAUAUAAUUUAAAUUUAUUCGAUUAUCACCAACCUAUGAAAAAAUCAUUUCAUCCCAAUUCCGACAUGAAUUUGUAGUGUCUGACAGGUUUGUUUAAAAACGAAGUGGUGUAAAGAACCAUCGAUUCUUUCCACUUAAAUAUCUCUCCUCUAAGGCUUUCUUAACCACUUUCUUGGCAUCCUCUCGCUGCGAUACUUCCUUGAAUGUUUCUGUAGAUAUUACGUUUUUAAGACCUUCUAAUUCGAGUGUGUAACGUGUUGGCAUAAUAUGAUUAUAAUUGAUAACUUUUAUAAAA
antisense: UUUUAUAAAAGUUAUCAAUUAUAAUCAUAUUAUGCCAACACGUUACACACUCGAAUUAGAAGGUCUUAAAAACGUAAUAUCUACAGAAACAUUCAAGGAAGUAUCGCAGCGAGAGGAUGCCAAGAAAGUGGUUAAGAAAGCCUUAGAGGAGAGAUAUUUAAGUGGAAAGAAUCGAUGGUUCUUUACACCACUUCGUUUUUAAACAAACCUGUCAGACACUACAAAUUCAUGUCGGAAUUGGGAUGAAAUGAUUUUUUCAUAGGUUGGUGAUAAUCGAAUAAAUUUAAAUUAUAUUAAACUAGAUUCACUAAAUUCAAAUAUACCUUGAAAUAUGAUAAAAUCAUCUGUCUGUUUCUU

Test system: E. necator
Assay: Leaf disc assay, dry inoculum (settling tower), decrease in disease severity / hyphal growth (Example 2)
Details: decrease in disease severity (hyphal growth) relative to untreated control, value ± SE; for % decrease =/− SE TP1: time point 1 (untreated control hyphal growth ≥50%); for % decrease =/− SE TP2: time point 2

Molecule	% decrease =/− SE TP1	% decrease =/− SE TP2
B1	19 ± 5%	15 ± 7%
B2	7 ± 6%	–
B3	1 ± 7%	–
B4	3 ± 6%	–
B5	44 ± 4%	47 ± 5%
B6	2 ± 7%	–
B7	4 ± 7%	–
